Consider one molecule from PMC2133053 (The Journal of Cell Biology, 1998).

The target in the experiment is GST–INAD fusion protein (full-length INAD in pGEX5.1) (Drosophila, UniProt Q24008 1-674). In words: pull-down.

B1: PKC^D (last three residues changed to aspartic acid), in vitro translated, 35S-labelled (enzyme, Drosophila, UniProt P13677 1-700, looked up)
chain: MAAAAVATPGATVLPPSVPSAAPGAKAPAAGAGKGPGNLLEITGEANIVNYMKNRLRKGAMKRKGLEMVNGHRFGVRFFKNPTYCGHCKDFIWGFGKQGFQCEECRFNIHQKCCKFVVFKCPGKDTDFDADCAKVKHGWISTTYTTPTFCDECGLLLHGVAHQGVKCENCNLNVHHACQETVPPMCGADISEVRGKLLLYVELKGNNLKVDIKEAANLIPMDTNGFSDPYIAVQMHPDRSGRTKKKTKTIQKNLNPVFNETFTFELQPQDRDKRLLIEVWDWDRTSRNDFMGSFSFSLEELQKEPVDGWYKFLSQVEGEHYNIPCVDAFNDIARLRDEVRHDRRPNEKRRMDNKDMPHNMSKRDMIRAADFNFVKVIGKGSFGKVLLAERRGTDELYAVKVLRKDVIIQTDDMELPMNEKKILALSGRPPFLVSMHSCFQTMDRLFFVMEYCKGGDLMYHMQQYGRFKESVAIFYAVEVAIALFFLHERDIIYRDLKLDNILLDGEGHVKLVDFGLSKEGVTERQTTRTFCGTPNYMAPEIVSYDPYSIAADWWSFGVLLFEFMAGQAPFEGDDETTVFRNIKDKKAVFPKHFSVEAMDIITSFLTKKPNNRLGAGRYARQEITTHPFFRNVDWDKAEACEMEPPIKPMIKHRKDISNFDDAFTKEKTDLTPTDKLFMMNLDQNDFIGFSFMNPEFIDDD
modifications: [35S]methionine label
Regarding B1, the “fold reduction of binding relative to wild-type PKC” value is roughly 8 fold.
